Assay results taken from patent US20220340673A1 (HARBOUR BIOMED SUZHOU, published 2022).

How the values were obtained:
[1] = target: T1, human BCMA on cells (HEK293T/huBCMA; NCI-H929) (human, UniProt Q02223 1-184); experiment: FACS on NCI-H929 cell line [D]
T1 construct: whole, on cells; also called human BCMA molecules on NCI-H929 cell line
T1 sequence (looked up): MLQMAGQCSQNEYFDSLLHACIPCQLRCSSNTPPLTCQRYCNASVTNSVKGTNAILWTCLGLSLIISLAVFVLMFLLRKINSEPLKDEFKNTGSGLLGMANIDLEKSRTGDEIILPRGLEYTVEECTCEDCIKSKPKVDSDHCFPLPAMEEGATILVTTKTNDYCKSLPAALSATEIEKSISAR
Description: (§1) This example was conducted to study the binding activity of anti human BCMA HCAb monoclonal antibodies to human and cynomolgus monkey BCMA in vitro. HEK293T cell strain (HEK293T/huBCMA, Beijing Kang yuan) overexpressing human BCMA, HEK293T cell strain (HEK293T/cynoBCMA, Beijing Kang yuan) overexpressing cynomolgus monkey BCMA and NCI- H929 cell line (ATCC® CRL-9068TM) highly expressing human BCMA were used for antibody binding assay at cellular level. Briefly, HEK293T/huBCMA cells and HEK293T/cynoBCMA cells were digested and resuspended with DMEM complete medium, and NCI-H929 cell suspensions were collected by resuspension with DMEM complete medium. The density of the three cells was adjusted to 1×10⁶ cells/mL, respectively. The cells were inoculated at 100 μL cells/well in 96 well V-bottom plates (Corning, Cat#: 3894), followed by the addition of test antibodies at 100 μL/well, which is gradient diluted at 3 folds of the concentration with 2 folds of the final concentration. Cells were incubated at 4° C. for 1 hours in the dark. Afterwards, the cells were washed twice with 100 μL/well of pre-cooled PBS, centrifuged at 500 g for 5 min at 4° C. and followed by discarding the supernatant. […] Finally, the cells were resuspended with 200 μL/well of pre-cooled PBS and the fluorescent luminescence signal values were read by using BD FACS CANTOII.

[2] = target: T1, human BCMA on cells (HEK293T/huBCMA; …); experiment: FACS on HEK293T cell strain overexpressing human BCMA [D]
Description: as §1

[3] = target: T2, cynomolgus monkey BCMA on cells (HEK293T/cynoBCMA) (cynomolgus monkey, UniProt A0A2K5UD97 1-183); experiment: FACS on HEK293T cell strain overexpressing cynomolgus monkey BCMA [D]
T2 construct: whole, on cells
Description: as §1

[4] = target: T3, human BCMA protein with Fc Tag (ACRO, Cat#: BC7-H5254) (human, UniProt Q02223 1-54); experiment: ELISA, plate coated with human BCMA-Fc; antibody blocks the binding of biotinylated human BAFF [B]
T3 construct: Bought reagent coated on the ELISA plate; not shown: Fc tag of the bought protein
T3 sequence (looked up): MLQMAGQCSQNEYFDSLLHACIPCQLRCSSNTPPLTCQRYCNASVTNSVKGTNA
Description: This example was conducted to evaluate the blockage ability of anti-human BCMA HCAb monoclonal antibody to the binding of human BCMA (ACRO, BCA-H522y-100 μg) with ligand BAFF protein (ACRO, BAF-H5248-50 μg). The BAFF protein was biotinylated by using a biotinylation kit (ThermoFisher, A39257, EZ-Link Sulfo-NHS-LC-Biotin) according to the instructions. The plates (Corning, Cat#: 9018) were coated with 1 μg/mL of human BCMA protein with Fc Tag (ACRO, Cat#: BC7-H5254) overnight. The plates were washed for 3 times with PBST, added with 2% BSA and then sealed at room temperature for 1 hour. The plates were washed with PBST for 3 times, and added with test antibody gradient diluted at 3 folds concentration 100 μL/well, with an initial concentration of 50 nM. After being incubated for 1h, the supernatant was discarded and 0.5 μg/mL of biotinylated human BAFF protein (prepared according to conventional methods in the art) was added to the plates at 100 μL/well. The plates were incubated at room temperature for 1 h and discarded the supernatant. Streptavidin-coupled HRP (Bio-RAD, Cat#: 1610380) with 1: 4000 diluted was added at 100 μL/well. The plates were incubated for 1 h at room temperature and washed with PBST for 3 times. […] OD450 values were read by using Enspire (Perkin Elmer).

[5] = target: T1, human BCMA on cells (HEK293T/huBCMA; …); experiment: FACS on NCI-H929 cell line [B]
Description: To study the binding activity of the BCMA arm of the BCMA×CD3 bispecific antibody to human BCMA, NCI-H929 cell line with highly expressed BCMA was used for binding experiments with human BCMA at cellular level. Briefly, NCI-H929 cell suspensions were collected. The cell density was adjusted to 1×10⁶ cells/mL, and the cells were inoculated in 96 well V-bottom plates at 100 μL cells/well (Corning, Cat#: 3894), followed by the addition of test antibodies at 100 μL/well, which is gradient diluted at 3 folds of the concentration with 2 folds of the final concentration. Cells were incubated at 4° C. for 2 hours in the dark. Afterwards, cells were washed twice with 100 μL/well of pre-cooled PBS, centrifuged at 500 g for 5 min at 4° C., and followed by discarding the supernatant. 100 μL/well of fluorescent secondary antibody (Alexa Fluor 488-conjugated AffiniPure Goat Anti-Human IgG, Fcγ Fragment Specific, Jackson, Cat#:109-545-06, 1:500 dilution) was added and incubated at 4° C. for 1 hour in the dark. Cells were washed twice with 100 μL/well of pre-cooled PBS, centrifuged at 500 g, 4° C. for 5 min, and followed by discarding the supernatant. Finally, the cells were resuspended with 200 μL/well of pre-cooled PBS, and the fluorescence luminescence signal values were read by BD FACS CANTOII.

T2 sequence (A0A2K5UD97 entry or part of it): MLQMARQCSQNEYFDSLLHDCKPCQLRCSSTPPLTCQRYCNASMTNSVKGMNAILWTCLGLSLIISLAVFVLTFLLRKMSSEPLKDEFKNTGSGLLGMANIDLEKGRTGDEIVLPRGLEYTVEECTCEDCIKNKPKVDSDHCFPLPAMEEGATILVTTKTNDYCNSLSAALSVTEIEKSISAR

| Binder | EC50 [1] | EC50 [2] | EC50 [3] | IC50 [4] | EC50 [5] |
| --- | --- | --- | --- | --- | --- |
| anti-human BCMA HCAb monoclonal antibody PR001046 (antibody, human IgG1, V domains shown, also called PRO01046; HBM1005P63B7) VH: EVQLVETGGGLIQPGGSLRLSCAASGFTVSDNYMTWVRQAPGKGLEWVSVIFSGGNTYYADSVKGRFTISRDNAKNTLYLQMNSLRAEDTALYYCARRNYDDTRGTDVFDIWGQGTMVTVSS | 1.53 nM | 0.213 nM | 0.564 nM | 2.94 nM | – |
| positive control 1, PR000274 (anti-BCMA antibody CA8-J6M0 hIgG1) (antibody, V domains shown, Full-length hIgG1 control antibody) VH: QVQLVQSGAEVKKPGSSVKVSCKASGGTFSNYWMHWVRQAPGQGLEWMGATYRGHSDTYYNQKFKGRVTITADKSTSTAYMELSSLRSEDTAVYYCARGAIYDGYDVLDNWGQGTLVTVSS VL: DIQMTQSPSSLSASVGDRVTITCSASQDISNYLNWYQQKPGKAPKLLIYYTSNLHSGVPSRFSGSGSGTDFTLTISSLQPEDFATYYCQQYRKLPWTFGQGTKLEIKR | 10.8 nM | 4.07 nM | 4.56 nM | 4.36 nM | – |
| BCMA x CD3 bispecific antibody PR002299 (bispecific antibody, human IgG1, lambda, L234A L235A) heavy 1: EVQLLESGGGLVQPGGSLRLSCAASGFTFSTYAMNWVRQAPGKGLEWVSRIRSKYNNYATYYADSVKDRFTISRDDSKSTLYLQMNSLRAEDTAVYYCVRHGNFGNSYVSWFAYWGQGTLVTVSSASTKGPSVFPLAPSSKSTSGGTAALGCLVKDYFPEPVTVSWNSGALTSGVHTFPAVLQSSGLYSLSSVVTVPSSSLGTQTYICNVNHKPSNTKVDKKVEPKSCDKTHTCPPCPAPEAAGGPSVFLFPPKPKDTLMISRTPEVTCVVVDVSHEDPEVKFNWYVDGVEVHNAKTKPREEQYNSTYRVVSVLTVLHQDWLNGKEYKCKVSNKALGAPIEKTISKAKGQPREPQVYTLPPCREEMTKNQVSLWCLVKGFYPSDIAVEWESNGQPENNYKTTPPVLDSDGSFFLYSKLTVDKSRWQQGNVFSCSVMHEALHNHYTQKSLSLSPGK light: QAVVTQEPSLTVSPGGTVTLTCRSSTGAVTTSNYANWVQQKPGQAPRGLIGGTNKRAPWTPARFSGSLLGDKAALTLLGAQPEDEAEYFCALWYSNLWVFGGGTKLTVLGQPKAAPSVTLFPPSSEELQANKATLVCLISDFYPGAVTVAWKADSSPVKAGVETTTPSKQSNNKYAASSYLSLTPEQWKSHRSYSCQVTHEGSTVEKTVAPTECS heavy 2: EVQLLESGGGLVQPGGSLRLSCAASGFTFSSYAMIWVRQAPGKGLEWVSGISESGGSTYYADSVKGRFTISRDNSKNTLYLQMNSLRAEDTAVYFCVKDLDDILTGYYKDYWGQGTLVTVSSRTGGGGSKLEVQLLESGGGLVQPGGSLRLSCAASGFTFSSYAMIWVRQAPGKGLEWVSGISESGGSTYYADSVKGRFTISRDNSKNTLYLQMNSLRAEDTAVYFCVKDLDDILTGYYKDYWGQGTLVTVSSASEPKSSDKTHTCPPCPAPEAAGGPSVFLFPPKPKDTLMISRTPEVTCVVVDVSHEDPEVKFNWYVDGVEVHNAKTKPREEQYNSTYRVVSVLTVLHQDWLNGKEYKCKVSNKALGAPIEKTISKAKGQPREPQVCTLPPSREEMTKNQVSLSCAVKGFYPSDIAVEWESNGQPENNYKTTPPVLDSDGSFFLVSKLTVDKSRWQQGNVFSCSVMHEALHNHYTQKSLSLSPGK | – | – | – | – | 57.2 nM |
